For one data set, the target named is Cys39 (UniProt position 40, TWCGPCKMIAP). Put plainly: chemical modification (iodoacetamide alkylation) with MALDI-TOF mass spectrometry. Particulars: not stated for the alkylation step (pre-reduction at 25 °C); 200 mM acetate/acetic acid (pH 3.5-5.5); 100 mM phosphate (pH 6.0-8.0); 100 mM HEPES-NaOH (pH 7.5-8.5); 100 mM glycine (above pH 8.5); carry-over of 40 mM phosphate pH 7.1 from pre-alkylation; Cys36 pre-alkylated (carbamidomethylated), Cys39 free thiol.

The target in another data set is Cys36 (UniProt position 37, FTATWCGPCKM). Described as above. Particulars: not stated for the alkylation step (pre-reduction at 25 °C); 200 mM acetate/acetic acid (pH 3.5-5.5); 100 mM phosphate (pH 6.0-8.0); 100 mM HEPES-NaOH (pH 7.5-8.5); 100 mM glycine (above pH 8.5); carry-over of 50 mM phosphate pH 7.1 and TCEP from pre-reduction; fully reduced (TCEP), both active-site cysteines free thiols.

In the data set with Cys39, “Thioredoxin h1 (CrTRXh1), monoalkylated at Cys36 (CrTRXh1-CAM) (Chlamydomonas reinhardtii)” came in with a pKa of 9.53 ± 0.12.

With “Thioredoxin h1 (CrTRXh1) (Chlamydomonas reinhardtii)”, the pKa with Cys36 stood at 6.63 ± 0.13.

For orientation: pKa means the pH at which an ionisable group is half protonated. Read a low pKa as a group that gives up its proton readily.

The values are drawn from PMC6356897.
